The values below are quoted from earlier work in article PMC8645602.

By pKa is commonly meant the negative logarithm of the acid dissociation constant.

Series [1] deals with Tyr9 (UniProt position 9, KPKLHYFNARG).
The target in series [2] is Tyr9 (UniProt position 9, KPKLHYFNGRG). Conditions: not stated (the article does not say whether the enzyme was free or glutathione-bound).

Read-outs that look alike come from different tables or passages of the source.

With “Glutathione transferase A1-1 (HsaGST A1-1) (Homo sapiens)”, the pKa in series [1] (free enzyme (no glutathione)) was 8.1; in series [1] (glutathione bound), 9.2. For the substance “Glutathione transferase A3-3 (HsaGST A3-3) (Homo sapiens)”, the pKa in series [2] was 7.9.
